We go through two molecules from patent US20260109980A1 (TRUSTEES OF COLUMBIA UNIVERSITY IN THE CITY OF NEW YORK, published 2026).

The labels stand for the following.
B1: Vibrio cholerae Cas6 (enzyme)
chain: not shown
notes: Ribonuclease subunit of Cascade, seen within the TniQ-Cascade cryo-EM structure; also called VchCas6; Csy4
B2: Vibrio cholerae Cas7 (other)
chain: not shown
notes: Six copies stand in Cascade; Cas7.1 is the monomer furthest from Cas8 and next to Cas6, and Cas7.2 is the next one; also called VchCas7; Cas7.1

Assay [1] deals with B2. Kind of assay: cryo-EM structure.
The target of assay [2] is B1. Kind of assay: cryo-EM structure.

In the case of B1, the binding result in assay [1] is given as “binds”.

Consider B2, for which the binding result in assay [2] is on record as “binds”.
